Assay results taken from PMC6700365, “Expression and Characterization of Carotenoid Cleavage Oxygenases From Herbaspirillum seropedicae and Rhodobacteraceae bacterium Capable of Biotransforming Isoeugenol and 4-Vinylguaiacol to Vanillin” (Frontiers in Microbiology, 2019).

B1: RbCCO (Paracoccaceae bacterium) (protein)
chain: MTRPFPKTPEFSGSLYRPARFEGSVFDLEVEGRVPEDIHGTFFQVAPDPQFPPMRGNDIFFNGDGAVHAFRFANGAVDFQRRYVMTDRLKAQRAERESLFGLYRNGYTNDPRADGVHMGTANTNVVQHNGRLLALKEDSPPYALDPVTLETHGLFDFDGQLTSPTFTAHPKFDPETGAMLCFGYEAKGEATPDIVYYEIDSQGRKQREIWLRGPYAAMIHDFAVTRNYIIFPLMPLTPDLDRIRKGGNHFEWQPGLEQVFGVLPRDGDGTDVRWFTAPNGFQGHTLNAFDDGRGRIFVDMPVTDGNIFYFFPQSDGHVPPPETLSSRMMRWTFDMNNPGNALSMAPITDFACEFPKCDPRYSGHEYRHGFVIGMDMTRPFDAERLGAPPFQFFNLLSHVDVATRRVKSWFADAQTCFQEPVFVPRSANAPEGEGWVIALANRLVDQTTDLVILDAQHMDEGPVAVVHLPVRLRMSLHGSWVPAAA
notes: codon-optimized gene, BamHI/XhoI in pET-29a(+), His-tagged, co-expressed with GroEL/GroES (pGro7) in E. coli BL21(DE3), Ni-NTA, about 55 kDa on SDS-PAGE
B2: HsCCO (Herbaspirillum seropedicae) (protein)
chain: MSMQYPATPEFQGMYRPSRVEASVQALEVVGQLPAQLQGCFYQVAPDPAYPPMLGQDIFFNGDGMVSAFRFGQGQVSLTRRYVQTERLKAQRQAGRSLNGIYRNIYTNAPEAASDNTTANTTVIKHAGVLLALKEDSLPYAMDPVTLETRGLWDFHGQVKSATFTAHPKICPQSGSMLCFAYEAKGDGTPDIAYYEIDAAGKLIRETWFQAPYAAMIHDFAVTENYVIFPIIPLTVDVERMKRGGQHFQWQPDLPQLFGILPRAGDAADVRWFYGPADGFQGHTLNAYELGRKLILDMPVTSGNVFYFFPQADGFVPSPETLKSGLARWTFDLDADNDQVMPEPLTQFPCEFPRCDERYSGRPYQHGFMLAFDPTLPFDAAALGAPPFQFFNQLAHVNVRTGETRTWYAGDAHCFQEPVFVPRSADAPEGDGFLLSLLNDLRSGATELVILDTHDLSAGPVARVQIPLRMRMSLHGNWSSD
notes: codon-optimized gene, NdeI/XhoI in pET-29a(+), His-tagged, E. coli BL21(DE3), Ni-NTA, about 55 kDa on SDS-PAGE

Columns and labels:
Assay in all cases: HPLC of vanillin formed
HPLC of vanillin formed [1] = substrate: C=Cc1ccc(O)c(OC)c1; type: biochemical, Paracoccaceae bacterium; details: measured under optimal conditions (pH 9.0, 35 °C), 10% glycerol
Source text: (§1) HPLC of vanillin formed on RbCCO

HPLC of vanillin formed [2] = substrate: CC=Cc1ccc(O)c(OC)c1; type: biochemical, Paracoccaceae bacterium; details: measured under optimal conditions (pH 9.0, 35 °C), 10% glycerol
Source text: as §1

HPLC of vanillin formed [3] = substrate: C=Cc1ccc(O)c(OC)c1; type: biochemical, Herbaspirillum seropedicae; details: measured under optimal conditions (pH 7.0, 40 °C), 10% glycerol
Source text: (§2) HPLC of vanillin formed on HsCCO

HPLC of vanillin formed [4] = substrate: CC=Cc1ccc(O)c(OC)c1; type: biochemical, Herbaspirillum seropedicae; details: measured under optimal conditions (pH 7.0, 40 °C), 10% glycerol
Source text: as §2

Protein	Km (HPLC of vanillin formed [1]) [µM]	Vmax (HPLC of vanillin formed [1]) [µmol/min/mg]	Km (HPLC of vanillin formed [2]) [µM]	Vmax (HPLC of vanillin formed [2]) [µmol/min/mg]	Km (HPLC of vanillin formed [3]) [µM]	Vmax (HPLC of vanillin formed [3]) [µmol/min/mg]	Km (HPLC of vanillin formed [4]) [µM]	Vmax (HPLC of vanillin formed [4]) [µmol/min/mg]
B1	850	0.02	2240	0.0765				
B2					1650	0.0279	1550	0.0741
